Source: paper PMC6987189, “Native aggregation is a common feature among triosephosphate isomerases of different species” (Scientific Reports, 2020)

Tests used:
Experiment in all cases: purified protein
Settings in all cases: GAP to DHAP direction, 25 °C, 100 mM TEA, 10 mM EDTA, 0.2 mM NADH, GAP 0.3 to 3 mM
purified protein [1] = substrate: O=C[C@H](O)COP(=O)(O)O; assay type: biochemical, Plasmodium falciparum
purified protein [2] = substrate: O=C[C@H](O)COP(=O)(O)O; assay type: biochemical, Taenia solium
purified protein [3] = substrate: O=C[C@H](O)COP(=O)(O)O; assay type: biochemical, Saccharomyces cerevisiae
purified protein [4] = substrate: O=C[C@H](O)COP(=O)(O)O; assay type: biochemical, Trypanosoma cruzi
purified protein [5] = substrate: O=C[C@H](O)COP(=O)(O)O; assay type: biochemical, Trypanosoma brucei
purified protein [6] = substrate: O=C[C@H](O)COP(=O)(O)O; assay type: biochemical, Thermus thermophilus
purified protein [7] = substrate: O=C[C@H](O)COP(=O)(O)O; assay type: biochemical, Leishmania mexicana
purified protein [8] = substrate: O=C[C@H](O)COP(=O)(O)O; assay type: biochemical, Entamoeba histolytica

B1: PfTIM (Plasmodium falciparum) (protein)
chain: MARKYFVAANWKCNGTLESIKSLTNSFNNLDFDPSKLDVVVFPVSVHYDHTRKLLQSKFSTGIQNVSKFGNGSYTGEVSAEIAKDLNIEYVIIGHFERRKYFHETDEDVREKLQASLKNNLKAVVCFGESLEQREQNKTIEVITKQVKAFVDLIDNFDNVILAYEPLWAIGTGKTATPEQAQLVHKEIRKIVKDTCGEKQANQIRILYGGSVNTENCSSLIQQEDIDGFLVGNASLKESFVDIIKSAM
notes: recombinant, E. coli BL21(DE3)pLysS, pTRC99A, purified (extra low-mass band on SDS-PAGE); dimer plus higher aggregates
Work on B1 yielded a Km (purified protein [1]) of 810 ± 40 µM, a kcat (purified protein [1]) of 5846 ± 39 s⁻¹ and a kcat/Km (purified protein [1]) of 7.3e+06 M⁻¹ s⁻¹.

B2: TsTIM (Taenia solium) (protein)
chain: MTRKLFVGGNWKMNGSYSHINTFFDTLQKADTDPNADIVIGVPACYLKYAQDKAPKGIKIAAENCYKVGSGAFTGEISTEMIKDCGCEWVILGHSERRHIFGESNELIGEKVKHALDSGLNVIPCIGELLSEREAGKTNDVCFAQMDAIAKNVPSKEAWDKVVIAYEPVWAIGTGKTATPAQAQEVHKVVRDWIRKHVDAGIADKVRILYGGSVTASNAKDLGTQPDVDGFLVGGASLKPDFITIINARR
notes: recombinant, E. coli BL21(DE3)pLysS, pRSET (His tag), purified; dimer plus higher aggregates
B2 gave a Km (purified protein [2]) of 520 ± 30 µM, a kcat (purified protein [2]) of 2460 ± 101 s⁻¹ and a kcat/Km (purified protein [2]) of 4.7e+06 M⁻¹ s⁻¹.

B3: ScTIM (Saccharomyces cerevisiae S288C) (protein)
chain: ARTFFVGGNFKLNGSKQSIKEIVERLNTASIPENVEVVICPPATYLDYSVSLVKKPQVTVGAQNAYLKASGAFTGENSVDQIKDVGAKWVILGHSERRSYFHEDDKFIADKTKFALGQGVGVILCIGETLEEKKAGKTLDVVERQLNAVLEEVKDWTNVVVAYEPVWAIGTGLAATPEDAQDIHASIRKFLASKLGDKAASELRILYGGSANGSNAVTFKDKADVDGFLVGGASLKPEFVDIINSRN
notes: recombinant, E. coli BL21(DE3)pLysS, plasmid pKK233-3, purified; dimer plus higher aggregates
For B3, the Km (purified protein [3]) was 790 ± 100 µM, the kcat (purified protein [3]) was 8690 ± 142 s⁻¹ and the kcat/Km (purified protein [3]) was 1.1e+07 M⁻¹ s⁻¹.

B4: TcTIM (Trypanosoma cruzi) (protein)
chain: MASKPQPIAAANWKCNGSESLLVPLIETLNAATFDHDVQCVVAPTFLHIPMTKARLTNPKFQIAAQNAITRSGAFTGEVSLQILKDYGISWVVLGHSERRLYYGETNEIVAEKVAQACAAGFHVIVCVGETNEEREAGRTAAVVLTQLAAVAQKLSKEAWSRVVIAYEPVWAIGTGKVATPQQAQEVHELLRRWVRSKLGTDIAAQLRILYGGSVTAKNARTLYQMRDINGFLVGGASLKPEFVEIIEATK
notes: recombinant, E. coli BL21(DE3)pLysS, pET-3a, purified; dimer plus higher aggregates
With B4 the Km (purified protein [4]) was 440 ± 50 µM, the kcat (purified protein [4]) was 6000 ± 230 s⁻¹ and the kcat/Km (purified protein [4]) was 1.36e+07 M⁻¹ s⁻¹.

B5: TbTIM (Trypanosoma brucei brucei) (protein)
chain: MSKPQPIAAANWKCNGSQQSLSELIDLFNSTSINHDVQCVVASTFVHLAMTKERLSHPKFVIAAQNAIAKSGAFTGEVSLPILKDFGVNWIVLGHSERRAYYGETNEIVADKVAAAVASGFMVIACIGETLQERESGRTAVVVLTQIAAIAKKLKKADWAKVVIAYEPVWAIGTGKVATPQQAQEAHALIRSWVSSKIGADVAGELRILYGGSVNGKNARTLYQQRDVNGFLVGGASLKPEFVDIIKATQ
notes: as for B4
Work on B5 yielded a Km (purified protein [5]) of 450 ± 50 µM, a kcat (purified protein [5]) of 5170 ± 117 s⁻¹ and a kcat/Km (purified protein [5]) of 1.15e+07 M⁻¹ s⁻¹.

B6: TtTIM (Thermus thermophilus HB8) (protein)
chain: MRRVLVAGNWKMHKTPSEARVWFAELKRLLPPLQSEAAVLPAFPILPVAKEVLAETQVGYGAQDVSAHKEGAYTGEVSARMLSDLGCRYAIVGHSERRRYHGETDALVAEKAKRLLEEGITPILCVGEPLEVREKGEAVPYTLRQLRGSLEGVEPPGPEALVIAYEPVWAIGTGKNATPEDAEAMHQAIRKALSERYGEAFASRVRILYGGSVNPKNFADLLSMPNVDGGLVGGASLELESFLALLRIAG
notes: recombinant, E. coli BL21(DE3)pLysS, pET-3aHIS (His tag), purified; dimer plus higher aggregates
Work on B6 yielded a Km (purified protein [6]) of 60 ± 10 µM, a kcat (purified protein [6]) of 1788 ± 0.9 s⁻¹ and a kcat/Km (purified protein [6]) of 3e+07 M⁻¹ s⁻¹.

B7: LmTIM (Leishmania mexicana) (protein)
chain: MSAKPQPIAAANWKCNGTTASIEKLVQVFNEHTISHDVQCVVAPTFVHIPLVQAKLRNPKYVISAENAIAKSGAFTGEVSMPILKDIGVHWVILGHSERRTYYGETDEIVAQKVSEACKQGFMVIACIGETLQQREANQTAKVVLSQTSAIAAKLTKDAWNQVVLAYEPVWAIGTGKVATPEQAQEVHLLLRKWVSENIGTDVAAKLRILYGGSVNAANAATLYAKPDINGFLVGGASLKPEFRDIIDATR
notes: as for B6
In the case of B7, the Km (purified protein [7]) is reported as 470 ± 10 µM, the kcat (purified protein [7]) is reported as 2800 ± 164 s⁻¹ and the kcat/Km (purified protein [7]) is reported as 5.9e+06 M⁻¹ s⁻¹.

B8: EhTIM (Entamoeba histolytica HM-1:IMSS) (protein)
chain: MSARKFVVGGNWKCNGTLASIETLTKGVAASVDAELAKKVEVIVGVPFIYIPKVQQILAGEANGANILVSAENAWTKSGAYTGEVHVGMLVDCQVPYVILGHSERRQIFHESNEQVAEKVKVAIDAGLKVIACIGETEAQRIANQTEEVVAAQLKAINNAISKEAWKNIILAYEPVWAIGTGKTATPDQAQEVHQYIRKWMTENISKEVAEATRIQYGGSVNPANCNELAKKADIDGFLVGGASLDAAKFKTIINSVSEKF
notes: recombinant, E. coli BL21(DE3)pLysS, plasmid given as pRET, purified; dimer plus higher aggregates
B8 showed a Km (purified protein [8]) of 140 ± 30 µM, a kcat (purified protein [8]) of 3650 ± 254 s⁻¹ and a kcat/Km (purified protein [8]) of 2.5e+07 M⁻¹ s⁻¹.
